In data set [1] the test system is biotinyl-Trp-oxazolone. Briefly: self-aminoacylation, catalytic enhancement (BWO) (fold over background); higher = more active; k-Seq, kA / k0A0; sequences stand for … in GGGAAUGGAUCCACAUCUACGAAUUC…UUCACUGCAGACUUGACGAAGCUG
The method, boiled down:
(§1)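 Working in 50 μL HEPES/NaCl/KCl/MgCl2/CaCl2 buffer with 5% acetonitrile at pH 6.9–7.0, mutagenized RNA pools (0.43 μM; 21-nt variable region) were reacted with 2–1250 μM of each biotinyl-aminoacyl-oxazolone for 90 minutes at room temperature. Streptavidin capture followed, with quantification by triplicate qPCR and Illumina sequencing. Catalytic enhancement is reported as median kA over the uncatalyzed rate, the low-activity peak of a bimodal Gaussian fit to the data.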

In data set [2] the test system is biotinyl-Met-oxazolone. Put plainly: self-aminoacylation, catalytic enhancement (BMO) (fold over background); higher = more active; k-Seq, kA / k0A0; sequences stand for … in GGGAAUGGAUCCACAUCUACGAAUUC…UUCACUGCAGACUUGACGAAGCUG
Summed up: as §1

The subject of data set [3] is biotinyl-Phe-oxazolone. Briefly: self-aminoacylation, catalytic enhancement (BFO) (fold over background); higher = more active; k-Seq, kA / k0A0; sequences stand for … in GGGAAUGGAUCCACAUCUACGAAUUC…UUCACUGCAGACUUGACGAAGCUG
The method, boiled down: as §1

Data set [4] deals with biotinyl-Leu-oxazolone. Put plainly: self-aminoacylation, catalytic enhancement (BLO) (fold over background); higher = more active; k-Seq, kA / k0A0; sequences stand for … in GGGAAUGGAUCCACAUCUACGAAUUC…UUCACUGCAGACUUGACGAAGCUG
Summed up:
as §1

In data set [5] the test system is biotinyl-Val-oxazolone. Put plainly: self-aminoacylation, catalytic enhancement (BVO) (fold over background); higher = more active; k-Seq, kA / k0A0; sequences stand for … in GGGAAUGGAUCCACAUCUACGAAUUC…UUCACUGCAGACUUGACGAAGCUG
Summed up:
as §1

Data set [6] deals with biotinyl-Ile-oxazolone. Put plainly: self-aminoacylation, catalytic enhancement (BIO) (fold over background); higher = more active; k-Seq, kA / k0A0; sequences stand for … in GGGAAUGGAUCCACAUCUACGAAUUC…UUCACUGCAGACUUGACGAAGCUG
The method, boiled down:
as §1

The values below come from the supplement of paper PMC9233669.

Variants at the floor of the assay were thinned out.

With “CCACACUUCAGGCAAUCGAUC [Fam1B.1 aminoacylation ribozyme variant]”, the self-aminoacylation in data set [1] stood at 0.804; in data set [2], 0.634; in data set [3], 0.731; in data set [4], 0.591; in data set [5] it was 0.892; in data set [6], 0.813.
Turning to “CCACACUUCAUGCAAUCGCUC [Fam1B.1 aminoacylation ribozyme variant]”, the self-aminoacylation was determined as 0.588 in data set [1]; 1.36 in data set [2]; 0.603 in data set [3]; 1.1 in data set [4]; 1.06 in data set [5]; 0.99 in data set [6].
With “CCACACUUCAUGCAAUCGGGC [Fam1B.1 aminoacylation ribozyme variant]”, the self-aminoacylation came out at 1.77 in data set [1]; 1.25 in data set [2]; 0.961 in data set [3]; 1.38 in data set [4]; 1.84 in data set [5]; 1.86 in data set [6].
As to “CCACACUUCAUGCAAUCGUUC [Fam1B.1 aminoacylation ribozyme variant]”, the self-aminoacylation in data set [1] turned out to be 0.373; in data set [2], 0.566; in data set [3] it was 0.835; in data set [4] it was 0.513; in data set [5], 0.699; in data set [6], 0.737.
For “CCACACUUCAUGCAAUGGGUC [Fam1B.1 aminoacylation ribozyme variant]”, the self-aminoacylation is 0.569 in data set [1]; 0.738 in data set [2]; 0.544 in data set [3]; 0.704 in data set [4]; 0.712 in data set [5]; 0.751 in data set [6].
For the sequence “CCACACUUCCAGAAAUCGGUC [Fam1B.1 aminoacylation ribozyme variant]”, the self-aminoacylation in data set [1] was 0.976; in data set [2], 0.808; in data set [3], 1.69; in data set [4], 1.13; in data set [5], 1.06; in data set [6], 0.933.
For the sequence “CCACACUUCCAGCAAUCGGCC [Fam1B.1 aminoacylation ribozyme variant]”, the self-aminoacylation in data set [1] stood at 4.06; in data set [2] it was 2.08; in data set [3], 3.34; in data set [4], 2.42; in data set [5], 4.01; in data set [6], 3.06.
As to “CCACACUUCGAGCAAACGGUC [Fam1B.1 aminoacylation ribozyme variant]”, the self-aminoacylation in data set [1] was found to be 0.57; in data set [2], 0.663; in data set [3], 0.648; in data set [4], 0.632; in data set [5], 0.655; in data set [6] it was 0.678.
Consider “CCACACUUCGAGCAAGCGGUC [Fam1B.1 aminoacylation ribozyme variant]”, for which the self-aminoacylation worked out at 0.82 in data set [1]; 0.927 in data set [2]; 0.487 in data set [3]; 0.874 in data set [4]; 1.19 in data set [5]; 0.864 in data set [6].
As to “CCACACUUCGAGCAAUCAGUC [Fam1B.1 aminoacylation ribozyme variant]”, the self-aminoacylation in data set [1] is 0.695; in data set [2] it was 0.488; in data set [3], 0.892; in data set [4], 0.52; in data set [5] it was 0.625; in data set [6] it was 0.666.
“CCACACUUCGAGCAAUCGGCC [Fam1B.1 aminoacylation ribozyme variant]”: the self-aminoacylation was 2.11 in data set [1]; 1.61 in data set [2]; 7.13 in data set [3]; 1.94 in data set [4]; 2.77 in data set [5]; 1.64 in data set [6].
As for “CCACACUUCGAGCAUUCGGUC [Fam1B.1 aminoacylation ribozyme variant]”, the self-aminoacylation stood at 1.54 in data set [1]; 1.67 in data set [2]; 1.18 in data set [3]; 1.72 in data set [4]; 2.2 in data set [5]; 1.97 in data set [6].
On to “CCACACUUCGAGCGAUCGGUC [Fam1B.1 aminoacylation ribozyme variant]”, for which the self-aminoacylation in data set [1] amounted to 1.38; in data set [2], 1.64; in data set [3] it was 2.95; in data set [4] it was 1.86; in data set [5] it was 1.69; in data set [6], 1.43.
Consider “CCACACUUCUAGCAACCGGUC [Fam1B.1 aminoacylation ribozyme variant]”, for which the self-aminoacylation in data set [1] turned out to be 0.402; in data set [2] it was 0.681; in data set [3], 0.818; in data set [4], 0.868; in data set [5], 0.946; in data set [6], 0.817.
As for “CCACACUUCUAGCAAUCAGUC [Fam1B.1 aminoacylation ribozyme variant]”, the self-aminoacylation was 0.459 in data set [1]; 0.648 in data set [2]; 1.14 in data set [3]; 0.622 in data set [4]; 0.721 in data set [5]; 0.797 in data set [6].
Consider “CCACACUUCUAGCAAUCUGUC [Fam1B.1 aminoacylation ribozyme variant]”, for which the self-aminoacylation in data set [1] came to 0.292; in data set [2], 0.378; in data set [3], 0.693; in data set [4], 0.354; in data set [5], 0.502; in data set [6], 0.424.
Turning to “CCACACUUGACGCAAUCGGUC [Fam1B.1 aminoacylation ribozyme variant]”, the self-aminoacylation in data set [1] is 1.54; in data set [2], 1.44; in data set [3], 1.18; in data set [4] it was 1.21; in data set [5], 1.43; in data set [6] it was 1.4.
Turning to “CCACACUUUAAGCAAUCAGUC [Fam1B.1 aminoacylation ribozyme variant]”, the self-aminoacylation was 0.749 in data set [1]; 0.541 in data set [2]; 1.03 in data set [3]; 0.69 in data set [4]; 0.874 in data set [5]; 0.76 in data set [6].
With “CCACACUUUAAGCAAUCGUUC [Fam1B.1 aminoacylation ribozyme variant]”, the self-aminoacylation amounted to 0.575 in data set [1]; 0.566 in data set [2]; 0.911 in data set [3]; 0.543 in data set [4]; 0.849 in data set [5]; 0.669 in data set [6].
For “CCACACUUUAAGGAAUCGGUC [Fam1B.1 aminoacylation ribozyme variant]”, the self-aminoacylation in data set [1] was 0.644; in data set [2], 0.717; in data set [3], 0.557; in data set [4], 0.725; in data set [5], 0.826; in data set [6], 0.862.
With “CCACACUUUAAGUAAUCGGUC [Fam1B.1 aminoacylation ribozyme variant]”, the self-aminoacylation is 0.677 in data set [1]; 0.632 in data set [2]; 0.978 in data set [3]; 0.667 in data set [4]; 0.694 in data set [5]; 0.653 in data set [6].
“CCACAGUUCAACCAAUCGGUC [Fam1B.1 aminoacylation ribozyme variant]”: the self-aminoacylation in data set [1] was found to be 5.76; in data set [2], 1.23; in data set [3], 6.48; in data set [4], 1.51; in data set [5] it was 1.26; in data set [6] it was 1.28.
In the case of “CCACAGUUCAAGCAAUCCGUC [Fam1B.1 aminoacylation ribozyme variant]”, the self-aminoacylation in data set [1] came to 1.04; in data set [2] it was 1.13; in data set [3], 1.11; in data set [4], 1.16; in data set [5], 1.2; in data set [6], 1.19.
For “CCACAGUUCAAGCAAUCGGGC [Fam1B.1 aminoacylation ribozyme variant]”, the self-aminoacylation in data set [1] is 3.13; in data set [2], 2.81; in data set [3], 10; in data set [4] it was 2.18; in data set [5], 2.42; in data set [6], 2.04.
In the case of “CCACAGUUCAAGCAAUCGUUC [Fam1B.1 aminoacylation ribozyme variant]”, the self-aminoacylation in data set [1] was found to be 0.472; in data set [2] it was 0.742; in data set [3], 0.594; in data set [4] it was 0.743; in data set [5], 0.845; in data set [6], 0.771.
